Data: publication PMC10527606

Columns and labels:
[1] = biological target: humanized 5c8 (hu5c8) (human (humanized antibody)); assay: SPR
TNX-1500 (human) = assay: SPR

| Substance | Kd [1] | Kd (TNX-1500 (human)) |
| --- | --- | --- |
| FcγRIIbF (from UniProt P31994 43-217) (receptor) | 970 nM | – |
| FcγRIIaH (from UniProt P12318 34-217) (receptor) | 510 nM | 7100 nM |
| FcγRIIIaF (from UniProt P08637 17-208) (receptor) | 1700 nM | – |
| FcγRIIIaV (from UniProt P08637 17-208) (receptor) | 330 nM | – |
| FcγRIa (from UniProt P12314 16-292) (receptor) | 0.033 nM | 8.7 nM |
